Assay results reported in the Human Domainome abundance scans (Beltran et al. 2025).
± gives the uncertainty stated by the source.

B1: Chromodomain-helicase-DNA-binding protein 5, residues 411 to 463; numbered along this chain, Q8TDI0 (parent)
chain: EEDDHMEFCRVCKDGGELLCCDACPSSYHLHCLNPPLPEIPNGEWLCPRCTCP

Variants of: B1
Test: abundance fitness (aPCA) (normalised: wild type 0, dead -1); higher = more abundant; growth selection in yeast, the domain comes from the species named
Conditions: Homo sapiens
In the case of E17L, the abundance fitness is reported as -0.27 ± 0.051. P53S gave an abundance fitness of -0.153 ± 0.13. P48L gave an abundance fitness of -0.564 ± 0.1. P48Y showed an abundance fitness of -0.149 ± 0.059. For P48C, the abundance fitness was 0.023 ± 0.12. Work on L30C yielded an abundance fitness of -0.038 ± 0.063. Work on L30D yielded an abundance fitness of -0.013 ± 0.075. Variant L30Q has an abundance fitness of 0.016 ± 0.063. For L37R, the abundance fitness was -0.006 ± 0.049. In the case of L37Q, the abundance fitness is reported as -0.028 ± 0.1. For L37K, the abundance fitness was -0.201 ± 0.1. Work on L37G yielded an abundance fitness of -0.232 ± 0.063. C32A showed an abundance fitness of -0.768 ± 0.11. Variant C32G has an abundance fitness of -0.985 ± 0.084. With C32E the abundance fitness was -0.264 ± 0.12. With C32L the abundance fitness was -0.716 ± 0.097. With W45R the abundance fitness was -0.449 ± 0.043. W45P gave an abundance fitness of -0.472 ± 0.067. W45H gave an abundance fitness of -0.512 ± 0.2. Variant W45C has an abundance fitness of -0.604 ± 0.1. In the case of W45G, the abundance fitness is reported as -0.457 ± 0.045. Variant V11D has an abundance fitness of 0.062 ± 0.081. V11H gave an abundance fitness of 0.033 ± 0.054. V11W showed an abundance fitness of -0.193 ± 0.052. For C20D, the abundance fitness was 0.217 ± 0.08. In the case of T51C, the abundance fitness is reported as 0.086 ± 0.083. Variant T51Q has an abundance fitness of 0.116 ± 0.092. T51N showed an abundance fitness of 0.018 ± 0.051. Variant T51E has an abundance fitness of -0.027 ± 0.063. T51M gave an abundance fitness of -0.296 ± 0.095. A23D gave an abundance fitness of -0.082 ± 0.12. For A23G, the abundance fitness was -0.014 ± 0.088. For A23H, the abundance fitness was 0.088 ± 0.17. Variant A23K has an abundance fitness of 0.092 ± 0.093. In the case of A23L, the abundance fitness is reported as 0.068 ± 0.069. Variant A23F has an abundance fitness of -0.708 ± 0.32. C52F gave an abundance fitness of -0.141 ± 0.098. E7F showed an abundance fitness of -0.224 ± 0.17. For E7H, the abundance fitness was -0.278 ± 0.11. Work on E7N yielded an abundance fitness of -0.07 ± 0.12. In the case of N34G, the abundance fitness is reported as -0.169 ± 0.063. For N34Y, the abundance fitness was -0.139 ± 0.17. Work on N34S yielded an abundance fitness of 0.097 ± 0.06. N34W gave an abundance fitness of -0.204 ± 0.067. N34Q showed an abundance fitness of 0.021 ± 0.064. For P41Y, the abundance fitness was -0.043 ± 0.2. Variant P41V has an abundance fitness of 0.043 ± 0.069. C50T gave an abundance fitness of -0.74 ± 0.064. In the case of C50S, the abundance fitness is reported as -0.702 ± 0.053. For C50G, the abundance fitness was -0.613 ± 0.05. For N42R, the abundance fitness was -0.052 ± 0.075. With N42T the abundance fitness was 0.014 ± 0.065. With N42Q the abundance fitness was -0.211 ± 0.15. In the case of G16K, the abundance fitness is reported as -0.482 ± 0.16. G16E gave an abundance fitness of 0.411 ± 0.12. E39I gave an abundance fitness of -0.138 ± 0.23. For E39S, the abundance fitness was 0.091 ± 0.07. E39Q gave an abundance fitness of 0.008 ± 0.19. In the case of E39M, the abundance fitness is reported as -0.113 ± 0.22. With E39T the abundance fitness was -0.209 ± 0.14. With E39D the abundance fitness was -0.203 ± 0.14. Work on E39A yielded an abundance fitness of 0.006 ± 0.084. S26C gave an abundance fitness of -0.107 ± 0.054. With M6G the abundance fitness was -0.09 ± 0.066. With M6H the abundance fitness was -0.279 ± 0.19. Work on M6N yielded an abundance fitness of 0.135 ± 0.094. M6V gave an abundance fitness of -0.077 ± 0.071. For M6L, the abundance fitness was -0.121 ± 0.061. Variant M6F has an abundance fitness of 0.084 ± 0.092. M6K showed an abundance fitness of 0.172 ± 0.08. With M6I the abundance fitness was 0.012 ± 0.13. In the case of M6P, the abundance fitness is reported as -0.03 ± 0.09. For L18W, the abundance fitness was -0.972 ± 0.17. With L18S the abundance fitness was -0.754 ± 0.13. L18D showed an abundance fitness of -0.972 ± 0.32. L18G gave an abundance fitness of -0.655 ± 0.13. Work on D3S yielded an abundance fitness of 0.155 ± 0.044. With D3I the abundance fitness was 0.36 ± 0.07. Work on D22T yielded an abundance fitness of 0.038 ± 0.053. Work on D22M yielded an abundance fitness of 0.051 ± 0.066. D22R gave an abundance fitness of 0.071 ± 0.044. Variant D22V has an abundance fitness of -0.085 ± 0.046. P35I showed an abundance fitness of -0.183 ± 0.068. P35S gave an abundance fitness of -0.23 ± 0.06. For R49C, the abundance fitness was 0.021 ± 0.057. In the case of R49H, the abundance fitness is reported as -0.223 ± 0.11. For R49N, the abundance fitness was 0.013 ± 0.1. I40Q gave an abundance fitness of 0.132 ± 0.12. For I40N, the abundance fitness was 0.063 ± 0.14. Work on I40A yielded an abundance fitness of -0.206 ± 0.12. In the case of C9N, the abundance fitness is reported as -0.735 ± 0.13. With C9D the abundance fitness was -0.595 ± 0.1. C9Y showed an abundance fitness of -0.977 ± 0.068. C9K showed an abundance fitness of -0.438 ± 0.074. E44M gave an abundance fitness of -0.312 ± 0.075. Variant E44A has an abundance fitness of -0.095 ± 0.048. Variant E44N has an abundance fitness of -0.083 ± 0.09. With E44K the abundance fitness was 0.102 ± 0.071. L46S showed an abundance fitness of 0.061 ± 0.059. With L46R the abundance fitness was -0.034 ± 0.06. L46K showed an abundance fitness of 0.079 ± 0.089. With Y28P the abundance fitness was -0.565 ± 0.076. Y28S showed an abundance fitness of -0.679 ± 0.058. For Y28R, the abundance fitness was -0.527 ± 0.053. In the case of E1N, the abundance fitness is reported as 0.264 ± 0.15. With E1I the abundance fitness was 0.425 ± 0.27. F8C gave an abundance fitness of -0.242 ± 0.097. With F8H the abundance fitness was -0.163 ± 0.1. In the case of F8M, the abundance fitness is reported as -0.131 ± 0.075. F8N gave an abundance fitness of 0.024 ± 0.11. F8D showed an abundance fitness of -0.138 ± 0.077. For C21Y, the abundance fitness was -0.946 ± 0.2. In the case of C21D, the abundance fitness is reported as -0.791 ± 0.1. C21F showed an abundance fitness of -0.844 ± 0.15. In the case of C21V, the abundance fitness is reported as -0.932 ± 0.054. L33F showed an abundance fitness of -0.209 ± 0.093. Work on L33D yielded an abundance fitness of -0.344 ± 0.1. Variant L33M has an abundance fitness of -0.235 ± 0.095. L33Q showed an abundance fitness of -0.484 ± 0.086. Work on L33C yielded an abundance fitness of -0.125 ± 0.084. In the case of L33G, the abundance fitness is reported as -0.554 ± 0.058. L33H showed an abundance fitness of -0.706 ± 0.21. P36A showed an abundance fitness of 0.099 ± 0.08. With H31A the abundance fitness was -0.092 ± 0.084. Variant H31E has an abundance fitness of 0.074 ± 0.093. With H31S the abundance fitness was -0.075 ± 0.08. Work on H31M yielded an abundance fitness of -0.088 ± 0.1. S27A gave an abundance fitness of 0.07 ± 0.073. With S27Q the abundance fitness was -0.064 ± 0.068. Work on K13C yielded an abundance fitness of 0.021 ± 0.098. With K13A the abundance fitness was 0.015 ± 0.064. With K13F the abundance fitness was -0.546 ± 0.1. H29F gave an abundance fitness of -0.765 ± 0.27. In the case of H29R, the abundance fitness is reported as -0.741 ± 0.062. Variant E2A has an abundance fitness of -0.194 ± 0.091. E2L showed an abundance fitness of -0.038 ± 0.062. L19Q showed an abundance fitness of -0.155 ± 0.12. Work on L19C yielded an abundance fitness of -0.317 ± 0.089. Variant C24R has an abundance fitness of -0.392 ± 0.085. With C24G the abundance fitness was -0.723 ± 0.1. Variant C24D has an abundance fitness of -0.703 ± 0.16. C24M showed an abundance fitness of -0.781 ± 0.1. With C24K the abundance fitness was -0.437 ± 0.12. C12D showed an abundance fitness of -0.574 ± 0.048. With C12M the abundance fitness was -0.923 ± 0.071. With C12P the abundance fitness was -0.699 ± 0.1. C12A gave an abundance fitness of -0.963 ± 0.061. For D4A, the abundance fitness was -0.186 ± 0.041. Work on D4F yielded an abundance fitness of 0.263 ± 0.047. D4R showed an abundance fitness of 0.048 ± 0.041. Variant G43F has an abundance fitness of 0.149 ± 0.13. G43S showed an abundance fitness of -0.008 ± 0.065. With P25A the abundance fitness was 0.094 ± 0.07. For P25K, the abundance fitness was 0.058 ± 0.075. In the case of P25M, the abundance fitness is reported as -0.11 ± 0.077. For P25T, the abundance fitness was 0.044 ± 0.065. P25Y showed an abundance fitness of 0.023 ± 0.071. D14S showed an abundance fitness of -0.17 ± 0.073. Variant D14K has an abundance fitness of -0.133 ± 0.1. Work on D14C yielded an abundance fitness of -0.291 ± 0.083. H5E showed an abundance fitness of -0.476 ± 0.069. H5G gave an abundance fitness of -0.246 ± 0.043. Variant G15W has an abundance fitness of -0.087 ± 0.09. In the case of G15K, the abundance fitness is reported as 0.191 ± 0.097. In the case of G15I, the abundance fitness is reported as -0.112 ± 0.14. Variant G15M has an abundance fitness of -0.165 ± 0.12. P38H gave an abundance fitness of -0.016 ± 0.27.
